The supplement of paper PMC10126150
± gives the standard deviation of the averaged measurements.

Tested on: ATP
Test: switch fluorescence ratio, 500 uM ATP over buffer (Cy3 cluster intensity, sum of 5 cycles each) (fold (ratio)); higher = stronger signal-on switching upon ATP binding; sequences stand for … in TCGTCGGCAGCGTCAGATGTGTATAAGAGACAGTTTTTTTTTTTTTTTTTTTTTTTTT…TC
Conditions: aptamer strand: ATP DNA aptamer (quencher-CACCTGGGGGAGTATTGCGGAGGAAGG + anchor), 100 nM annealed; ATP concentration: 500 uM
Method in brief: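 Imaging in selection buffer was followed by imaging after 15 min with 500 uM ATP at 22 °C, for Cy3-labelled switching-strand clusters annealed to 100 nM quencher-labelled ATP aptamer on a modified Illumina MiSeq flow-cell. Five of these buffer/ATP cycles ran, separated by NaOH stripping and re-annealing. The fluorescence ratio per cluster is summed target-cycle over summed buffer-cycle Cy3 intensity, averaged per switch-domain sequence; clusters outside 100-1000 RFU were removed.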
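Further: ATP exposure 15 min at 22 °C before imaging.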

Sequence | switch fluorescence ratio
TCTTGTATGG | 0.9906 ± 0.006
TCTTTAAAGG | 1.04 ± 0.039
TCTTTCCGGT | 1.14 ± 0.23
TCTTTCGGAG | 1.33 ± 0.077
TCTTTGAAGA | 1.14 ± 0.24
TCTTTGGACC | 1.04 ± 0.056
TCTTTGGTGG | 1.03 ± 0.038
TCTTTTCATT | 0.994 ± 0.022
TCTTTTCCCT | 1.02 ± 0.086
TCTTTTGCCT | 1.01 ± 0.034
TCTTTTGCTT | 1.01 ± 0.032
TCTTTTGGCA | 1.1 ± 0.078
TCTTTTGGTT | 1.011 ± 0.0051
TCTTTTTTTC | 1.02 ± 0.034
TGAAAAAAAT | 1.05 ± 0.058
TGAAAAACCG | 1.14 ± 0.12
TGAAAAACGT | 0.991 ± 0.013
TGAAAAAGGT | 0.9993 ± 0.0021
TGAAAAGGTA | 1 ± 0.013
TGAAAGAGGC | 0.999 ± 0.014
TGAAAGGATT | 1.02 ± 0.025
TGAAAGGTGG | 1.04 ± 0.018
TGAAAGTGTT | 0.994 ± 0.012
TGAAATGGGA | 1.0074 ± 0.00077
TGAACGGGGA | 1.02 ± 0.031

Sequence | switch fluorescence ratio
TGAACTAATT | 1.01 ± 0.0099
TGAACTTAGT | 0.995 ± 0.02
TGAACTTTTA | 0.965 ± 0.061
TGAAGAAAGT | 0.998 ± 0.032
TGAAGATTAT | 0.988 ± 0.012
TGAAGGAGAA | 0.929 ± 0.037
TGAAGGGGAT | 1.02 ± 0.045
TGAAGTACTT | 1.06 ± 0.011
TGAAGTCGGT | 0.9681 ± 0.0066
TGAAGTTGGG | 1.11 ± 0.15
TGAATAGTGT | 0.996 ± 0.044
TGAATCGGGG | 1.027 ± 0.0014
TGAATGAGGG | 0.993 ± 0.029
TGAATGCGCC | 1.01 ± 0.025
TGAATGCTTT | 1.23 ± 0.3
TGAATGGAGG | 0.988 ± 0.042
TGAATGGGGT | 0.987 ± 0.02
TGAATGGTCG | 1.05 ± 0.036
TGAATTCGGG | 1.01 ± 0.064
TGAATTCTTG | 1 ± 0.034
TGAATTGCAT | 0.96601 ± 0.00064
TGAATTGGTC | 1.06 ± 0.16
TGAATTGTTT | 0.993 ± 0.043
TGAATTTCTG | 1.029 ± 0.0094
TGAATTTGTA | 0.993 ± 0.03

Sequence | switch fluorescence ratio
TGACAAGGGG | 1.05 ± 0.044
TGACACATGA | 1.02 ± 0.013
TGACACTTGG | 0.99 ± 0.011
TGACAGTCAG | 0.968 ± 0.02
TGACATAATT | 1.01 ± 0.046
TGACATGGGG | 0.9827 ± 0.0051
TGACCACCAG | 0.993 ± 0.019
TGACCGAATT | 1.03 ± 0.054
TGACCGAGCG | 0.9603 ± 0.0065
TGACCGATCA | 1 ± 0.021
TGACCGGCTT | 1.05 ± 0.013
TGACGAACTC | 1.32 ± 0.045
TGACGAGCGG | 1.04 ± 0.061
TGACGCAGGA | 2.53 ± 1.8
TGACGCCTGA | 1.02 ± 0.022
TGACGGATGG | 1.03 ± 0.051
TGACGGTGGC | 1.02 ± 0.017
TGACTAATAA | 1.02 ± 0.013
TGACTAGGGA | 0.992 ± 0.021
TGACTCGAGT | 1.01 ± 0.012
TGACTGCGGG | 1.01 ± 0.015
TGACTGGCTT | 1.014 ± 0.01
TGACTTATGT | 1.014 ± 0.0037
TGACTTTTGT | 0.98 ± 0.0015
TGAGAAGACT | 1.03 ± 0.033

Sequence | switch fluorescence ratio
TGAGACGAAA | 1.07 ± 0.052
TGAGAGGGAC | 1.05 ± 0.013
TGAGAGGGGG | 1 ± 0.083
TGAGAGGTGG | 1 ± 0.036
TGAGAGTTCA | 1.006 ± 0.0032
TGAGATCACT | 1 ± 0.013
TGAGATCTGG | 0.982 ± 0.035
TGAGATTATT | 1.01 ± 0.038
TGAGATTCAG | 0.985 ± 0.02
TGAGATTGTG | 1.02 ± 0.037
TGAGATTGTT | 1.01 ± 0.028
TGAGCAAGGT | 1.203 ± 0.0039
TGAGCCCCGG | 1.03 ± 0.028
TGAGCCCGCT | 1 ± 0.016
TGAGCCCGGG | 0.97 ± 0.013
TGAGCGACTT | 1.005 ± 0.0095
TGAGCGGTAG | 1.028 ± 0.004
TGAGCGTGAG | 1.01 ± 0.015
TGAGCTGATG | 0.986 ± 0.032
TGAGGAAGGT | 1.016 ± 0.009
TGAGGAATTT | 1 ± 0.029
TGAGGACAGG | 1.06 ± 0.054
TGAGGAGAAT | 0.996 ± 0.028
TGAGGAGGGG | 0.989 ± 0.048
TGAGGATCCA | 0.985 ± 0.013
